From the RNAGym collection of RNA variant scans (doi:10.1073/pnas.2313332121)

B1: TPR t1 (parent)
chain: GACCAAUCUGCCCUCAGAGCUCGAGAACAUCUUCGGAUGCAGAGGAGGCAGGCUUCGGUGGCGCGAUAGCGCCAACGUCCUCAACCUCCAAUGCAUCCCACCACAUGAUGAUGCCUGAAGAGCCUUGGUUUUUUG

Variants of: B1
Assay: polymerase ribozyme fitness, log enrichment relative to wild type (log ratio); higher = more active; in vitro selection for triplet polymerase activity
How it was run: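 Input and output libraries were sequenced on Illumina after a single in vitro selection round, run in triplicate on PCR-built, transcribed mutant libraries of each subunit of a heterodimeric triplet polymerase ribozyme. Selection annealed libraries to a biotinylated primer, the partner subunit and triplets, incubated them frozen at −7 °C, then gel-excised extended constructs for streptavidin-bead capture and RT-PCR. Genotypes with ≥10 input reads and ≥1 read per output were kept. Fitness is the logarithm, taken in base 2, of genotype enrichment divided by wild-type enrichment, using inverse-variance-weighted replicate averages.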

Row | Variant | polymerase ribozyme fitness (log ratio)
1 | A27G G60U | -1.6
2 | A27C G71A | -4
3 | A26G C80U G120U | -3.13
4 | A27U C28G G63U G110C | -5.36
5 | C28G G48U U92G C124A | -5.41
6 | A27U G69U U132C | -1.95
7 | A26U G93U | -3.09
8 | A27G C72U C101A C104A | -4.48
9 | A27C G51A C76G | -5.75
10 | A27G U78C | -2.35
11 | A26U C62U U129A | -5.15
12 | A27U A29C G35C A68U U109G A119G G127A | -6.64
13 | A27G C49A | -2
14 | A26G C28G | -2.83
15 | A26G C40U G63C C79A C101U G117A | -5.91
16 | A26U A41C A46U C101U | -6.28
17 | A26G G71A C88G G120C | -2.52
18 | C28G G44C G52U C73A G110A | -2.09
19 | A27G U54C C80U A84U | -2.61
20 | G25C A83C C94G A103U C124G U125C | -8.57
21 | A24U U38A C72U C80G C99U | -7.56

Row | Variant | polymerase ribozyme fitness (log ratio)
22 | A27G G45U A46C C49U C124A G128A | -5.34
23 | A26C G117C G122A | -7.15
24 | A27U U78C | -2.98
25 | A27U C53A C72U | -3.4
26 | C28G C86A G120C | -2.11
27 | A26U C80U | -4.31
28 | A27G C49G C64U | -2.51
29 | A27G C98A | -7.76
30 | C28G U92G G117A A121G | -4.67
31 | C28A G71C C89G A121U C124A | -5.37
32 | C28A G45A | -5.12
33 | G25C G61C U92G G117U | -6.32
34 | A27U A43U G48A C88A C123A | -4.03
35 | A27G A46U C102U C115A G120A | -7.01
36 | A27G C56A | -2.09
37 | A24G A27G | -4.03
38 | A27G U125G | -2.34
39 | A26U A37C G77A C124G | -1.36
40 | A26G G113U | -4.2
41 | A26C A83C | -5.16
42 | A26G G39A C49U C64U | -3.32

Row | Variant | polymerase ribozyme fitness (log ratio)
43 | A27G C104A | -2.31
44 | A26U C73U U81A | -3.86
45 | A26U U87G | -2.62
46 | A24G A27G G120A | -3.91
47 | G25C A29G C64A C79G A90C G117U A119G | -7.04
48 | A27U C28U | -2.59
49 | A27U C56G | -4.07
50 | C28G A83G | -3.41
51 | A27U A46C U116C | -6.31
52 | A26G A29G C80G C86U A119G | -3.74
53 | A26G C114U | -3.27
54 | A27U U54A U112C G122A | -2.2
55 | A26U G60U U78C | -3.09
56 | A26G A74C C88A C115U | -2.88
57 | A27C G69U C73A | -1.89
58 | A26U A66G | -4.28
59 | C28A C40G | -6.86
60 | C28G G113C | -6.23
61 | A26U C98U | -4.2
62 | C28A U30G A43G G110C | -6.92
63 | A24G G39C U92G C104U | -5.73

Row | Variant | polymerase ribozyme fitness (log ratio)
64 | A26G C72A C86G A111U G122U | -3.76
65 | A27U C76U A100U G120C | -3.8
66 | A27U G60A | -3.35
67 | G25A C73A | -6.13
68 | A27U A66C A83U | -4.44
69 | A27G G36U G42C G120A | -5.26
70 | A27G G69C A90C | -4.21
71 | A24G G51U G69A G113C G120U | -6.67
72 | C28A A66C A111U C115G | -6.53
73 | A27G G48U | -2.47
74 | A26C A43G G63C G69A C115G | -4.47
75 | A27C U32C G39A C98G | -7.35
76 | A27G A50U G61A A83G U126G G128C | -5.38
77 | A27G G47A C53G | -2.77
78 | A26U G69U C79G | -3.29
79 | C28G U106A G117C | -5.9
80 | A27U C62A C101U A119U | -5.17
81 | A26G C34U C85U C124G | -2.34
82 | A27G A50G C72U U81A | -2
83 | A24U C72U | -5.63
